Results reported in patent US20180346564A1 (TEIJIN PHARMA, published 2018).
[ ]: non-standard residue; d: D form. pT = C[C@@H](OP(=O)(O)O)[C@H](N)C(=O)O; pS = N[C@@H](COP(=O)(O)O)C(=O)O

T1: Peptide No. 5, pT217, H-GC-GSRSRTPSLP(pT)PPTREPKKVAVV-OH (human, phosphothreonine (pT) at peptide position 13 (tau Thr217))
T1 peptide: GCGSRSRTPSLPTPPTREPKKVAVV

T2: Peptide No. 3, pS202, H-SSPG(pS)PGTPC-OH (human, SMILES C[C@@H](O)[C@H](NC(=O)CNC(=O)[C@@H]1CCCN1C(=O)[C@H](COP(=O)(O)O)NC(=O)CNC(=O)[C@@H]1CCCN1C(=O)[C@H](CO)NC(=O)[C@@H](N)CO)C(=O)N1CCC[C@H]1C(=O)N[C@@H](CS)C(=O)O)
T2 peptide: H-SSPG[pS]PGTPC-OH

T3: Peptide No. 8, pS412, H-NV(pS)STGSC-OH (human, SMILES CC(C)[C@H](NC(=O)[C@@H](N)CC(N)=O)C(=O)N[C@@H](COP(=O)(O)O)C(=O)N[C@@H](CO)C(=O)N[C@H](C(=O)NCC(=O)N[C@@H](CO)C(=O)N[C@@H](CS)C(=O)O)[C@@H](C)O)
T3 peptide: H-NV[pS]STGSC-OH

T4: Peptide No. 4, pT212/pS214, H-GCGSPGTPGSRSR(pT)P(pS)LPTPPTREPK-OH (human, phosphothreonine (pT) at peptide position 14 (tau Thr212); phosphoserine (pS) at peptide position 16 (tau Ser214))
T4 peptide: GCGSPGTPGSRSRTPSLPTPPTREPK

T5: Peptide No. 7, pS396/pS400/pS404, H-GC-RENAKAKTDHGAEIVYK(pS)PVV(pS)GDT(pS)PRHL-OH (human, phosphoserine (pS) at peptide positions 20, 24 and 28 (tau Ser396, Ser400, Ser404))
T5 peptide: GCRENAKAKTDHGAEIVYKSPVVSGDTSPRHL

T6: Peptide No. 6, pT231, H-KVAVVR(pT)PPKSPS-OH (human)
T6 peptide: H-KVAVVR[pT]PPKSPS-OH

T7: Peptide No. 2, pS199, H-SGYS(pS)PGSPGC-OH (human, SMILES N[C@@H](CO)C(=O)NCC(=O)N[C@@H](Cc1ccc(O)cc1)C(=O)N[C@@H](CO)C(=O)N[C@@H](COP(=O)(O)O)C(=O)N1CCC[C@H]1C(=O)NCC(=O)N[C@@H](CO)C(=O)N1CCC[C@H]1C(=O)NCC(=O)N[C@@H](CS)C(=O)O)
T7 peptide: H-SGYS[pS]PGSPGC-OH

T8: Peptide No. 1, pS46, H-GLKE(pS)PLQT-OH (human, SMILES CC(C)C[C@H](NC(=O)CN)C(=O)N[C@@H](CCCCN)C(=O)N[C@@H](CCC(=O)O)C(=O)N[C@@H](COP(=O)(O)O)C(=O)N1CCC[C@H]1C(=O)N[C@@H](CC(C)C)C(=O)N[C@@H](CCC(N)=O)C(=O)N[C@H](C(=O)O)[C@@H](C)O)
T8 peptide: H-GLKE[pS]PLQT-OH


Legend:
[1] = biological target: T9, His-tagged non-phosphorylated tau protein 4R0N (human, UniProt P10636 2-758); experiment: SPR Biacore T200, antigen immobilized
T9 construct: Produced by Escherichia coli; negative control in SPR; also called ATGen Cat. No. ATGP0795
Procedure: The binding affinities of the hyperphosphorylated tau protein 4R2N (hpTau), non-phosphorylated tau protein 4R0N, monophosphorylated tau peptide 1×P, triphosphorylated tau peptide 3×P, and non-phosphorylated tau peptide Non P with each antibody were measured with an SPR system Biacore T200 (GE Healthcare Japan), in accordance with the instruction manual for evaluation attached to the system.
The His-tagged hpTau or Tau proteins were each immobilized on a sensor chip using an HBS-N buffer (code No. BR-1003-69) as the immobilization reaction solution and allowing a nickel chloride solution to react with the NTA sensor chip for bonding Ni to NTA. Subsequently, the sensor chip was activated with a mixed solution of N-ethyl-N′-(3-dimethylaminopropyl)-carbodiimide hydrochloride (1-ethyl-3-(3-dimethylaminopropyl)carbodiimide hydrochloride: EDC) and N-hydroxysuccinimide (NHS). A solution of each of the His-tagged proteins, adjusted to a concentration of 100 to 500 ng/mL with a 4-(2-hydroxyethyl)-1-piperazineethanesulfonic acid (HEPES) buffer (0.01 M HEPES, 150 mM KCl, 2 mM DTT, 1 mM EDTA, pH 7.2), was applied to the sensor chip, whereby the protein was immobilized on the sensor chip through covalent bonds with the Ni-NTA. The remaining active NHS was blocked with ethanolamine, and Ni ions were removed with an EDTA solution (Ni-affinity amine coupling: see International Publication No. WO2005/022156). The antigen peptides (1×P, 3×P, and Non P) were each immobilized on a sensor chip by activating the NTA sensor chip with a mixed solution of N-ethyl-N′-(3-dimethylaminopropyl)-carbodiimide (EDC) hydrochloride and N-hydroxysuccinimide (NHS), and then applying a solution of the antigen peptide diluted with a 10 mM sodium acetate buffer (pH: 4 to 4.5) to 1 to 10 μM to the sensor chip, whereby the peptide was covalently bound to the sensor chip. The remaining active NHS was blocked with ethanolamine. Thus, sensor chips immobilized respectively with the proteins and peptides mentioned above were produced.
A CAPS buffer (pH 10.5) was applied to these sensor chips at 37° C. to stabilize the protein- or peptide-immobilized surfaces of the sensor chips.

[2] = biological target: T1, Peptide No. 5, pT217, …; experiment: ELISA, coated peptide
Procedure, shortened: (§1)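 Peptides, or their bovine serum albumin or keyhole limpet hemocyanin conjugates, at 1 μg/mL in cold PBS were coated at 50 μL/well overnight at 4 °C, then blocked with 3% BSA-PBS overnight at 4 °C. Purified antibody at 150 ng/mL in 3% BSA-PBS was bound for 90 minutes at room temperature, followed by alkaline phosphatase-labelled goat anti-human IgG (H+L) (2000-fold, 60 minutes). Binding was read as absorbance at 405 nm (reference 550 nm) after 40 minutes of pNPP development.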

[3] = biological target: T2, Peptide No. 3, pS202, H-SSPG(pS)PGTPC-OH; experiment: ELISA, coated peptide
Procedure, shortened: as §1

[4] = biological target: T3, Peptide No. 8, pS412, H-NV(pS)STGSC-OH; experiment: ELISA, coated peptide
Procedure, shortened: as §1

[5] = biological target: T4, Peptide No. 4, pT212/pS214, …; experiment: ELISA, coated peptide
Procedure, shortened: as §1

[6] = biological target: T5, Peptide No. 7, pS396/pS400/pS404, …; experiment: ELISA, coated peptide
Procedure, shortened: as §1

[7] = biological target: T6, Peptide No. 6, pT231, …; experiment: ELISA, coated peptide
Procedure, shortened: as §1

[8] = biological target: T7, Peptide No. 2, pS199, …; experiment: ELISA, coated peptide
Procedure, shortened: as §1

[9] = biological target: T8, Peptide No. 1, pS46, H-GLKE(pS)PLQT-OH; experiment: ELISA, coated peptide
Procedure, shortened: as §1

T9 sequence (P10636 other isoform, or with tags, fused parts or gaps limits assumed): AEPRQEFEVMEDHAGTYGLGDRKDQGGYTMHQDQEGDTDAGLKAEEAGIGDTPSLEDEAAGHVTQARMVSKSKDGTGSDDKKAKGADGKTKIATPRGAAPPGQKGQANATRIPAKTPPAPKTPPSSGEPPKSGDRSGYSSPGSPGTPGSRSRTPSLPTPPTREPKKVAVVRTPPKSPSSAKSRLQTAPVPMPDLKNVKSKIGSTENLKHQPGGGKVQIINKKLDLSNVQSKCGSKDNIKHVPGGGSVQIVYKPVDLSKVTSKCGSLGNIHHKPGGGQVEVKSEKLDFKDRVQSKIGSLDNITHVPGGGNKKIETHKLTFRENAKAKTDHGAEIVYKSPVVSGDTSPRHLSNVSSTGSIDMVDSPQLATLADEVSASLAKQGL

Binder | binding result [1] | binding result [2] | binding result [3] | binding result [4] | binding result [5] | binding result [6] | binding result [7] | binding result [8] | binding result [9]
chimeric antibody Ta1505 (antibody, human IgG1, kappa, V domains shown, Mouse Ta1505 variable regions with human IgG1(kappa) constant regions. chim; also called the chimeric antibody; Chimera) VH: EVQLVESGGGLVQPKGSLKLSCAASGFAFNSFALNWVRQAPGKSLEWVVHIRSKTNNYATFYADSVKDRFTVSRDDSQSMVYLQMNNLKTEDTGIYYCVRRGPRDSWFGYWGQGTLVTVSA VL: DILMTQTPLSLPVSLGDQASISCRSSQNIVHSNGNTYLEWYLQKPGQSPKVLIYTVSNRFSGVPDRFSGSGSGTDFTLKISRVEAEDLGVYYCFQGSHLPLTFGGGTKLELKR | no binding (tested: 0.2 to 1 nM) | no binding (tested: OD value <0.5; antibody 150 ng/mL) | no binding (tested: OD value <0.5; antibody 150 ng/mL) | no binding (tested: OD value <0.5; antibody 150 ng/mL) | no binding (tested: OD value <0.5; antibody 150 ng/mL) | no binding (tested: OD value <0.5; antibody 150 ng/mL) | no binding (tested: OD value <0.5; antibody 150 ng/mL) | no binding (tested: OD value <0.5; antibody 150 ng/mL) | no binding (tested: OD value <0.5; antibody 150 ng/mL)
humanized antibody L48H11 (antibody, human IgG1, kappa, V domains shown, VL48/VH11, human IgG1/kappa) VH: EVQLVESGGGLVQPGGSLRLSCAASGFTFSSFALNWVRQAPGKGLEWVGHIRSKTNNYATFYAASVKDRFTVSRDDSQNTAYLQMNSLKTEDTATYYCVRRGPRDSWFGYWGQGTLVTVSS VL: DIVMTQSPLSLPVTLGDPASISCRSSQNIVHSNGNTYLEWYQQKPGQSPQLLIYTVSNRFSGVPDRFSGSGSGTDFTLKISRVEAEDLGVYYCFQGSHLPLTFGGGTKVEIKR | no binding (tested: 0.2 to 1 nM) | no binding (tested: OD value <0.5; antibody 150 ng/mL) | no binding (tested: OD value <0.5; antibody 150 ng/mL) | no binding (tested: OD value <0.5; antibody 150 ng/mL) | no binding (tested: OD value <0.5; antibody 150 ng/mL) | no binding (tested: OD value <0.5; antibody 150 ng/mL) | no binding (tested: OD value <0.5; antibody 150 ng/mL) | no binding (tested: OD value <0.5; antibody 150 ng/mL) | no binding (tested: OD value <0.5; antibody 150 ng/mL)
humanized antibody L47H64 (antibody, human IgG1, kappa, V domains shown, VL47/VH64, human IgG1/kappa) VH: EVQLVESGGGLVQPGGSLRLSCAASGFTFNSFALNWVRQAPGKGLEWVVHIRSKTNNYATFYAASVKDRFTVSRDDSQNTAYLQMNSLKTEDTATYYCVRRGPRDSWFGYWGQGTLVTVSS VL: DIVMTQSPLSLPVTLGDPASISCRSSQSIVHSNGNTYLEWYQQKPGQSPQRLIYTVSNRFSGVPDRFSGSGSGTDFTLKISRVEAEDLGVYYCFQGSHLPLTFGGGTKVEIKR | – | no binding (tested: OD value <0.5; antibody 150 ng/mL) | no binding (tested: OD value <0.5; antibody 150 ng/mL) | no binding (tested: OD value <0.5; antibody 150 ng/mL) | no binding (tested: OD value <0.5; antibody 150 ng/mL) | no binding (tested: OD value <0.5; antibody 150 ng/mL) | no binding (tested: OD value <0.5; antibody 150 ng/mL) | no binding (tested: OD value <0.5; antibody 150 ng/mL) | no binding (tested: OD value <0.5; antibody 150 ng/mL)
humanized antibody L36H11 (antibody, human IgG1, kappa, V domains shown, VL36/VH11, human IgG1/kappa) VH: EVQLVESGGGLVQPGGSLRLSCAASGFTFSSFALNWVRQAPGKGLEWVGHIRSKTNNYATFYAASVKDRFTVSRDDSQNTAYLQMNSLKTEDTATYYCVRRGPRDSWFGYWGQGTLVTVSS VL: DIVMTQSPLSLPVTLGDPASISCRSSQSIVHSNGNTYLEWYQQKPGQSPQLLIYTVSNRFSGVPDRFSGSGSGTDFTLKISRVEAEDLGVYYCFQGSHLPLTFGGGTKVEIKR | no binding (tested: 0.2 to 1 nM) | no binding (tested: OD value <0.5; antibody 150 ng/mL) | no binding (tested: OD value <0.5; antibody 150 ng/mL) | no binding (tested: OD value <0.5; antibody 150 ng/mL) | no binding (tested: OD value <0.5; antibody 150 ng/mL) | no binding (tested: OD value <0.5; antibody 150 ng/mL) | no binding (tested: OD value <0.5; antibody 150 ng/mL) | no binding (tested: OD value <0.5; antibody 150 ng/mL) | no binding (tested: OD value <0.5; antibody 150 ng/mL)
humanized antibody L15H11 (antibody, human IgG1, kappa, V domains shown, VL15/VH11, human IgG1/kappa) VH: EVQLVESGGGLVQPGGSLRLSCAASGFTFSSFALNWVRQAPGKGLEWVGHIRSKTNNYATFYAASVKDRFTVSRDDSQNTAYLQMNSLKTEDTATYYCVRRGPRDSWFGYWGQGTLVTVSS VL: DIVMTQSPLSLPVTLGEPASISCRSSQSIVHSNGNTYLEWYQQKPGQSPRLLIYTVSNRFSGVPDRFSGSGSGTDFTLKISRVEAEDLGVYYCFQGSHLPLTFGGGTKVEIKR | no binding (tested: 0.2 to 1 nM) | no binding (tested: OD value <0.5; antibody 150 ng/mL) | no binding (tested: OD value <0.5; antibody 150 ng/mL) | no binding (tested: OD value <0.5; antibody 150 ng/mL) | no binding (tested: OD value <0.5; antibody 150 ng/mL) | no binding (tested: OD value <0.5; antibody 150 ng/mL) | no binding (tested: OD value <0.5; antibody 150 ng/mL) | no binding (tested: OD value <0.5; antibody 150 ng/mL) | no binding (tested: OD value <0.5; antibody 150 ng/mL)
